According to the RNAGym collection of RNA variant scans (doi:10.1101/gr.219683.116):

B1: mRNA-splicing (parent)
chain: AGUUGCUGCUGGGAGCUCCAGCACAGUGAAAUGGACAGAAGGGCAGAGCAA

Variants of: B1
Test: exon inclusion enrichment index; higher = more inclusion; WT1 exon 5 minigene, HEK293

Variant | exon inclusion enrichment index
C6A U7C C9A U10C C16A U17A | 3.43
C6A U7C C9A U10C C16A U17C | 3.21
C6A U7C C9A U10C C16A U17G | 2.33
C6A U7C C9A U10C C16G | 2.49
C6A U7C C9A U10C C16G U17A | 3.24
C6A U7C C9A U10C C16G U17C | 1.82
C6A U7C C9A U10C C16G U17G | 0.621
C6A U7C C9A U10C C16U | 3.55
C6A U7C C9A U10C C16U U17A | 2.9
C6A U7C C9A U10C C16U U17C | 2.51
C6A U7C C9A U10C C16U U17G | 2.04
C6A U7C C9A U10C C18A | 2.64
C6A U7C C9A U10C C18A C19A | 1.44
C6A U7C C9A U10C C18A C19G | 0.998
C6A U7C C9A U10C C18A C19U | 0.374
C6A U7C C9A U10C C18G | 3.06
C6A U7C C9A U10C C18G C19A | 3.84
C6A U7C C9A U10C C18G C19G | 3.85
C6A U7C C9A U10C C18G C19U | 1.28
C6A U7C C9A U10C C18U | 2.7
C6A U7C C9A U10C C18U C19A | 0.757
C6A U7C C9A U10C C18U C19G | 1.93
C6A U7C C9A U10C C18U C19U | 0.145
C6A U7C C9A U10C C19A | 2.55

Variant | exon inclusion enrichment index
C6A U7C C9A U10C C19A A20C | 2.73
C6A U7C C9A U10C C19A A20G | 0.968
C6A U7C C9A U10C C19A A20U | 2.07
C6A U7C C9A U10C C19G | 3.61
C6A U7C C9A U10C C19G A20C | 3.87
C6A U7C C9A U10C C19G A20G | 2.38
C6A U7C C9A U10C C19G A20U | 3.25
C6A U7C C9A U10C C19U | 0.759
C6A U7C C9A U10C C19U A20C | 3.08
C6A U7C C9A U10C C19U A20G | 1.79
C6A U7C C9A U10C C19U A20U | 2.13
C6A U7C C9A U10C C22A | 3.18
C6A U7C C9A U10C C22A A23C | 3.88
C6A U7C C9A U10C C22A A23G | 3.9
C6A U7C C9A U10C C22A A23U | 2.92
C6A U7C C9A U10C C22G | 3.9
C6A U7C C9A U10C C22G A23C | 1.74
C6A U7C C9A U10C C22G A23G | 2.55
C6A U7C C9A U10C C22G A23U | 0.87
C6A U7C C9A U10C C22U | 2.84
C6A U7C C9A U10C C22U A23C | 2.11
C6A U7C C9A U10C C22U A23G | 3.38
C6A U7C C9A U10C C22U A23U | 2.51
C6A U7C C9A U10C C24A | 2.94

Variant | exon inclusion enrichment index
C6A U7C C9A U10C C24A A25C | 4.45
C6A U7C C9A U10C C24A A25G | 2.94
C6A U7C C9A U10C C24A A25U | 2.96
C6A U7C C9A U10C C24G | 3.61
C6A U7C C9A U10C C24G A25C | 4.59
C6A U7C C9A U10C C24G A25G | 2.34
C6A U7C C9A U10C C24G A25U | 3.51
C6A U7C C9A U10C C24U | 1.66
C6A U7C C9A U10C C24U A25C | 4.21
C6A U7C C9A U10C C24U A25G | 3.92
C6A U7C C9A U10C C24U A25U | 2.88
C6A U7C C9A U10C C36A | 2.48
C6A U7C C9A U10C C36A A37C | 3.18
C6A U7C C9A U10C C36A A37G | 1.73
C6A U7C C9A U10C C36A A37U | 2.17
C6A U7C C9A U10C C36G | 2.75
C6A U7C C9A U10C C36G A37C | 1.56
C6A U7C C9A U10C C36G A37G | 1.36
C6A U7C C9A U10C C36G A37U | 1.89
C6A U7C C9A U10C C36U | 1.34
C6A U7C C9A U10C C36U A37C | 2.39
C6A U7C C9A U10C C36U A37G | 2.91
C6A U7C C9A U10C C36U A37U | 1.97
C6A U7C C9A U10C C44A | 4.44

Variant | exon inclusion enrichment index
C6A U7C C9A U10C C44A A45C | 4.04
C6A U7C C9A U10C C44A A45G | 4.86
C6A U7C C9A U10C C44A A45U | 5.42
C6A U7C C9A U10C C44G | 4.07
C6A U7C C9A U10C C44G A45C | 4.25
C6A U7C C9A U10C C44G A45G | 1.29
C6A U7C C9A U10C C44G A45U | 3.12
C6A U7C C9A U10C C44U | 1.32
C6A U7C C9A U10C C44U A45C | 3.64
C6A U7C C9A U10C C44U A45G | 2.34
C6A U7C C9A U10C C44U A45U | 2.71
C6A U7C C9A U10C G11A | 1.84
C6A U7C C9A U10C G11A G12A | 2.21
C6A U7C C9A U10C G11A G12C | 2.2
C6A U7C C9A U10C G11A G12U | 1.87
C6A U7C C9A U10C G11C | 3.61
C6A U7C C9A U10C G11C G12A | 2.17
C6A U7C C9A U10C G11C G12C | 2.59
C6A U7C C9A U10C G11C G12U | 2.2
C6A U7C C9A U10C G11U | 3.07
C6A U7C C9A U10C G11U G12A | 1.25
C6A U7C C9A U10C G11U G12C | 1.94
C6A U7C C9A U10C G11U G12U | 1.57
C6A U7C C9A U10C G12A | 3.18

Variant | exon inclusion enrichment index
C6A U7C C9A U10C G12A G13A | 2.17
C6A U7C C9A U10C G12A G13C | 2.54
C6A U7C C9A U10C G12A G13U | 1.08
C6A U7C C9A U10C G12C | 3.68
C6A U7C C9A U10C G12C G13A | 2.55
C6A U7C C9A U10C G12C G13C | 1.72
C6A U7C C9A U10C G12C G13U | 0.77
C6A U7C C9A U10C G12U | 2.7
C6A U7C C9A U10C G12U G13A | 1.25
C6A U7C C9A U10C G12U G13C | 0.584
C6A U7C C9A U10C G12U G13U | 0.542
C6A U7C C9A U10C G13A | 3.32
C6A U7C C9A U10C G13A A14C | 3.39
C6A U7C C9A U10C G13A A14G | 3
C6A U7C C9A U10C G13A A14U | 3.22
C6A U7C C9A U10C G13C | 2.83
C6A U7C C9A U10C G13C A14C | 2.43
C6A U7C C9A U10C G13C A14G | 2.83
C6A U7C C9A U10C G13C A14U | 2.57
C6A U7C C9A U10C G13U | 1.08
C6A U7C C9A U10C G13U A14C | 2.46
C6A U7C C9A U10C G13U A14G | 2.11
C6A U7C C9A U10C G13U A14U | 2.48
C6A U7C C9A U10C G15A | 3.34

Variant | exon inclusion enrichment index
C6A U7C C9A U10C G15A C16A | 2.34
C6A U7C C9A U10C G15A C16G | 2.11
C6A U7C C9A U10C G15A C16U | 2.88
C6A U7C C9A U10C G15C | 4
C6A U7C C9A U10C G15C C16A | 2.79
C6A U7C C9A U10C G15C C16G | 3.44
C6A U7C C9A U10C G15C C16U | 3.32
C6A U7C C9A U10C G15U | 3.57
C6A U7C C9A U10C G15U C16A | 2.78
C6A U7C C9A U10C G15U C16G | 3.06
C6A U7C C9A U10C G15U C16U | 3.12
C6A U7C C9A U10C G21A | 3.08
C6A U7C C9A U10C G21A C22A | 2.06
C6A U7C C9A U10C G21A C22G | 3.04
C6A U7C C9A U10C G21A C22U | 2.22
C6A U7C C9A U10C G21C | 3.66
C6A U7C C9A U10C G21C C22A | 3.4
C6A U7C C9A U10C G21C C22G | 3.98
C6A U7C C9A U10C G21C C22U | 3.3
C6A U7C C9A U10C G21U | 3.09
C6A U7C C9A U10C G21U C22A | 2.02
C6A U7C C9A U10C G21U C22G | 3.54
C6A U7C C9A U10C G21U C22U | 1.78
C6A U7C C9A U10C G26A | 3.92

Variant | exon inclusion enrichment index
C6A U7C C9A U10C G26A U27A | 2.91
C6A U7C C9A U10C G26A U27C | 4.65
C6A U7C C9A U10C G26A U27G | 3.54
C6A U7C C9A U10C G26C | 3.46
C6A U7C C9A U10C G26C U27A | 3.61
C6A U7C C9A U10C G26C U27C | 4.37
C6A U7C C9A U10C G26C U27G | 3.92
C6A U7C C9A U10C G26U | 3.34
C6A U7C C9A U10C G26U U27A | 2.38
C6A U7C C9A U10C G26U U27C | 4
C6A U7C C9A U10C G26U U27G | 4.12
C6A U7C C9A U10C G28A | 1.59
C6A U7C C9A U10C G28A A29C | 2.55
C6A U7C C9A U10C G28A A29G | 1.98
C6A U7C C9A U10C G28A A29U | 1.29
C6A U7C C9A U10C G28C | 3.06
C6A U7C C9A U10C G28C A29C | 2.62
C6A U7C C9A U10C G28C A29G | 3.91
C6A U7C C9A U10C G28C A29U | 2.34
C6A U7C C9A U10C G28U | 1.34
C6A U7C C9A U10C G28U A29C | 2.72
C6A U7C C9A U10C G28U A29G | 3.18
C6A U7C C9A U10C G28U A29U | 1.26
